Test results reported in US20250304927A1, “PRO-PEPTIDE VARIANTS FOR MODULATING ACTIVITY OF TRANSGLUTAMINASES” (CURIE CO. INC., priority 2022, published 2025).

T1: thermostable variant of Streptomyces mobaraensis transglutaminase (Streptomyces mobaraensis, UniProt P81453 79-407)
T1 sequence: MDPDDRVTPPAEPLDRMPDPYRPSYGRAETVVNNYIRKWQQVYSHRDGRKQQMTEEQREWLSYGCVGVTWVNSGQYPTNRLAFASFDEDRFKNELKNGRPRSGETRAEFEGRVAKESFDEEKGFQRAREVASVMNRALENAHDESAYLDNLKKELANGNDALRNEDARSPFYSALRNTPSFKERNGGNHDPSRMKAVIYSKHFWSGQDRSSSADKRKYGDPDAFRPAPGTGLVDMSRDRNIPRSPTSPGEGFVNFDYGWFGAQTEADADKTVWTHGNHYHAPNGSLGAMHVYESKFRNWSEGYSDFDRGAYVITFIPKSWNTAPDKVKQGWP


Key:
[1] = target: T1, thermostable variant of Streptomyces …; experiment: cell-based or functional assay
[2] = target: T1, thermostable variant of Streptomyces …; experiment: cell-based or functional assay; remark: listed apart in the source

Row | Binder | Improvement in pH responsiveness of inhibitory peptide relative to WT [1] [fold] | Improvement in binding affinity of inhibitory peptide relative to WT [2] [fold]
1 | MDNGAGEVTKSYAETYRLTADDVANINALNESAPAASSAGPSFRAP [pro-peptide variant E8V] | – | > 1.2
2 | MDNGAGEETKSYAETYRGTADDVANINALNESAPAASSAGPSFRAP [pro-peptide variant L18G] | > 1.2 | –
3 | MDNGAGHETKSYAETYRLTADDVANINALNESAPAASSAGPSFRAP [pro-peptide variant E7H] | – | > 1.2
4 | MDNGAGEETKSYAETYRLTADDVCNINALNESAPAASSAGPSFRAP [pro-peptide variant A24C] | > 1.2 | –
5 | MDNGAGEETKSYAKTYRLTADDVANINALNESAPAASSAGPSFRAP [pro-peptide variant E14K] | > 5 | –
6 | MDNGAGDETKSYAETYRLTADDVANINALNESAPAASSAGPSFRAP [pro-peptide variant E7D] | – | > 1.2
7 | MDNGAGEEEKSYAETYRLTADDVANINALNESAPAASSAGPSFRAP [pro-peptide variant T9E] | – | > 1.2
8 | MDNGAGEECKSYAETYRLTADDVANINALNESAPAASSAGPSFRAP [pro-peptide variant T9C] | – | > 1.2
9 | MDNGAGEETKSYAETYRLTADDVANINALNESAPAASSAGPSFRAM [pro-peptide variant P46M] | > 1.2 | –
10 | MDNGAGEESKSYAETYRLTADDVANINALNESAPAASSAGPSFRAP [pro-peptide variant T9S] | > 1.2 | –
11 | MDNGAGEETKSYAETYRLTADNVANINALNESAPAASSAGPSFRAP [pro-peptide variant D22N] | – | > 1.2
12 | MDNGAGEEPKSYAETYRLTADDVANINALNESAPAASSAGPSFRAP [pro-peptide variant T9P] | – | > 1.2
13 | MDNGAGEETKSYAETYRLTADDVANINALNESAPAASRAGPSFRAP [pro-peptide variant S38R] | > 1.2 | –
14 | MDNGAGRETKSYAETYRLTADDVANINALNESAPAASSAGPSFRAP [pro-peptide variant E7R] | – | > 1.2
15 | MDNGAGEETKSYAETYRLTAKDVANINALNESAPAASSAGPSFRAP [pro-peptide variant D21K] | – | > 1.2

Results, then the binder that gave them:

Row | Improvement in pH responsiveness of inhibitory peptide relative to WT [1] [fold] | Improvement in binding affinity of inhibitory peptide relative to WT [2] [fold] | Binder
16 | > 1.2 | – | MDNGAGEETKSYAETYRLTADDVANINALNESAPAAS [pro-peptide truncation variant ΔS38-P46]
17 | – | > 1.2 | MFNGAGEETKSYAETYRLTADDVANINALNESAPAASSAGPSFRAP [pro-peptide variant D2F]
18 | – | > 1.2 | MDNGAGEITKSYAETYRLTADDVANINALNESAPAASSAGPSFRAP [pro-peptide variant E8I]
19 | – | > 1.2 | MDNGAGEEIKSYAETYRLTADDVANINALNESAPAASSAGPSFRAP [pro-peptide variant T9I]
20 | – | > 1.2 | MDNGAGEEDKSYAETYRLTADDVANINALNESAPAASSAGPSFRAP [pro-peptide variant T9D]
21 | > 1.2 | – | MDNGAGEETKSYAETYRCTADDVANINALNESAPAASSAGPSFRAP [pro-peptide variant L18C]
22 | > 1.2 | – | MDNGAGEETKSYAETYRLTATDVANINALNESAPAASSAGPSFRAP [pro-peptide variant D21T]
23 | – | > 1.2 | MDNGAGEETKSYAEQYRLTADDVANINALNESAPAASSAGPSFRAP [pro-peptide variant T15Q]
24 | > 5 | – | MDNGAGEETKSYAETYRLTADDVANINALNESAPAASSAGPSFRAG [pro-peptide variant P46G]
25 | > 1.2 | – | MDNGAGEETKSYAETYRRTADDVANINALNESAPAASSAGPSFRAP [pro-peptide variant L18R]
26 | > 5 | – | MDNGAGEETKSYAYTYRLTADDVANINALNESAPAASSAGPSFRAP [pro-peptide variant E14Y]
27 | – | > 1.2 | MDNGAGEETKSYAETYRLTADHVANINALNESAPAASSAGPSFRAP [pro-peptide variant D22H]
28 | > 1.2 | – | MDNGAGEETKSYAETYRLTADDVANINALNESAPAASSAGPSFRAF [pro-peptide variant P46F]
29 | > 1.2 | – | MDNGAGEETKAYAETYRLTADDVANINALNESAPAASSAGPSFRAP [pro-peptide variant S11A]
30 | > 1.2 | – | MDNGAGEETKSYAETYRLTADSVANINALNESAPAASSAGPSFRAP [pro-peptide variant D22S]
31 | > 1.2 | – | MDNGAGEETKSRAETYRLTADDVANINALNESAPAASSAGPSFRAP [pro-peptide variant Y12R]
32 | > 1.2 | – | MDNGAGEETKSYAETYRVTADDVANINALNESAPAASSAGPSFRAP [pro-peptide variant L18V]
33 | – | > 1.2 | MDNGAGEETKSYAETYRLTADDVMNINALNESAPAASSAGPSFRAP [pro-peptide variant A24M]
34 | – | > 1.2 | MDNGAGEETKSYAETYRFTADDVANINALNESAPAASSAGPSFRAP [pro-peptide variant L18F]
35 | > 1.2 | – | MDNGAGEETKTYAETYRLTADDVANINALNESAPAASSAGPSFRAP [pro-peptide variant S11T]
